Changes are numbered by the printed parent chain. One block for each binder: values may come before it.
Tests used:
[1] = biological target: human serum polyclonal antibodies; assay: cross-interaction chromatography (CIC), column with human serum polyclonal IgG
[2] = biological target: human serum polyclonal antibodies; assay: cross-interaction chromatography (CIC), IgG column against blank column

IgG column RT [1]: 5.07 min | IgG column peak width [1]: 1.5 min | IgG K' (column retention time ratio) [2]: 0.05
B1: anti-human MCT1 antibody Ab1 (antibody, human IgG1, kappa, V domains shown)
VH: QVQLVQSGAEVKKPGASVKVSCTVSGFSLTNYHLQWVRQAPGQGLEWMGFIRSSGNTEYNSEFKSRVTMTRDTSTSTVYMELSSLRSEDTAVYYCARNSWYHGTYYSPGYYVMDAWGQGTLVTVSS
VL: EIVLTQSPGTLSLSPGERATLSCKGSQNINNYLAWYQQKPGQAPRLLIYNRHNLQTGIPDRFSGSGSGTDFTLTISRLEPEDFAVYYCYQYSDGYTFGGGTKVEIKR

IgG column RT [1]: 5.35 min | IgG column peak width [1]: 1.64 min | IgG K' (column retention time ratio) [2]: 0.08
B2: anti-human MCT1 antibody Ab18 (antibody, human IgG1, kappa, V domains shown)
VH: B1 VH with F27R, Q35G, S99R
VL: B1 VL with N30E

IgG column RT [1]: 5.27 min | IgG column peak width [1]: 1.55 min | IgG K' (column retention time ratio) [2]: 0.09
B3: anti-human MCT1 antibody Ab15 (antibody, human IgG1, kappa, V domains shown)
VH: B1 VH with F27R, S99L
VL: B1 VL with N30E

IgG column RT [1]: 5.29 min | IgG column peak width [1]: 1.46 min | IgG K' (column retention time ratio) [2]: 0.07
B4: anti-human MCT1 antibody Ab12 (antibody, human IgG1, kappa, V domains shown)
VH: B1 VH with F27R, Q35V, S99R
VL: B1 VL with N30E

IgG column RT [1]: 5.19 min | IgG column peak width [1]: 1.36 min | IgG K' (column retention time ratio) [2]: 0.05
B5: anti-human MCT1 antibody Ab17 (antibody, human IgG1, kappa, V domains shown)
VH: B1 VH with F27R, Y32I, S99R
VL: B1 VL with N30E

IgG column RT [1]: 5.38 min | IgG column peak width [1]: 1.79 min | IgG K' (column retention time ratio) [2]: 0.08
B6: anti-human MCT1 antibody Ab7 (antibody, human IgG1, kappa, V domains shown)
VH: B1 VH with F27R, L29R, S99R
VL: B1 VL with N30E

IgG column RT [1]: 5.28 min | IgG column peak width [1]: 1.46 min | IgG K' (column retention time ratio) [2]: 0.07
B7: anti-human MCT1 antibody Ab9 (antibody, human IgG1, kappa, V domains shown)
VH: B1 VH with F27R, L34I, S99R
VL: B1 VL with N30E

IgG column RT [1]: 5.41 min | IgG column peak width [1]: 1.94 min | IgG K' (column retention time ratio) [2]: 0.08
B8: anti-human MCT1 antibody Ab19 (antibody, human IgG1, kappa, V domains shown)
VH: B1 VH with F27R, S53R, S99R
VL: B1 VL with N30E

IgG column RT [1]: 5.33 min | IgG column peak width [1]: 1.63 min | IgG K' (column retention time ratio) [2]: 0.07
B9: anti-human MCT1 antibody Ab13 (antibody, human IgG1, kappa, V domains shown)
VH: B1 VH with F27R, S99R, Y101R
VL: B1 VL with N30E

IgG column RT [1]: 5.34 min | IgG column peak width [1]: 1.55 min | IgG K' (column retention time ratio) [2]: 0.07
B10: anti-human MCT1 antibody Ab8 (antibody, human IgG1, kappa, V domains shown)
VH: B1 VH with F27R, E58I, S99R
VL: B1 VL with N30E

IgG column RT [1]: 5.33 min | IgG column peak width [1]: 1.57 min | IgG K' (column retention time ratio) [2]: 0.06
B11: anti-human MCT1 antibody Ab11 (antibody, human IgG1, kappa, V domains shown)
VH: B1 VH with F27R, S99R, Y101H
VL: B1 VL with N30E

IgG column RT [1]: 5.27 min | IgG column peak width [1]: 1.44 min | IgG K' (column retention time ratio) [2]: 0.06
B12: anti-human MCT1 antibody Ab10 (antibody, human IgG1, kappa, V domains shown)
VH: B1 VH with F27R, N31G, S99R
VL: B1 VL with N30E

IgG column RT [1]: 5.4 min | IgG column peak width [1]: 1.89 min | IgG K' (column retention time ratio) [2]: 0.08
B13: anti-human MCT1 antibody Ab16 (antibody, human IgG1, kappa, V domains shown)
VH: B1 VH with V24R, F27R, S99R
VL: B1 VL with N30E

IgG column RT [1]: 5.29 min | IgG column peak width [1]: 1.51 min | IgG K' (column retention time ratio) [2]: 0.07
B14: anti-human MCT1 antibody Ab14 (antibody, human IgG1, kappa, V domains shown)
VH: B1 VH with F27R, S99R, A115P
VL: B1 VL with N30E
